The source of these data is PMC8406365 (Acta Biochimica et Biophysica Sinica, 2021).

This assay concerns the target SENP3 (endogenous, LO2 hepatocytes) (human (endogenous in LO2), UniProt Q9H4L4 1-574). Kind of assay: FRET or BRET. Background: Bioluminescence resonance energy transfer reports proximity on the nanometre scale.

Chain of SENP3 (endogenous, LO2 hepatocytes) (Q9H4L4 whole entry): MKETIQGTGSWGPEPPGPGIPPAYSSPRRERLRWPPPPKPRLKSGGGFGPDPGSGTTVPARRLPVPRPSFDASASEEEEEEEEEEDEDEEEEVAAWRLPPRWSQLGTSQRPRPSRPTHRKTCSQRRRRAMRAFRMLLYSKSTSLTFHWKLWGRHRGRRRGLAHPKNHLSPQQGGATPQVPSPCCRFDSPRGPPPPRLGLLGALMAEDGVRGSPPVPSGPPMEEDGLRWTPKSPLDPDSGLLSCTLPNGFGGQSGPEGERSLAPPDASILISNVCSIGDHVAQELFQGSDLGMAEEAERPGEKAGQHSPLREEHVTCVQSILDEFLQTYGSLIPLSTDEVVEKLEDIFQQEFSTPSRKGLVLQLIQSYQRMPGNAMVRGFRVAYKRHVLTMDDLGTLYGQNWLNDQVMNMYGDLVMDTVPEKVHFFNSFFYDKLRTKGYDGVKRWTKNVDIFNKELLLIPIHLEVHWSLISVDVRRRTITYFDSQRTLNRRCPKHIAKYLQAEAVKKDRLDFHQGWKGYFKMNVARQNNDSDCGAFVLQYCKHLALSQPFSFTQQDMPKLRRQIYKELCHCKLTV

B1: ATP synthase subunit (ATP5F1A) (natural protein, human (endogenous in LO2), UniProt P25705 44-553, looked up)
chain: QKTGTAEMSSILEERILGADTSVDLEETGRVLSIGDGIARVHGLRNVQAEEMVEFSSGLKGMSLNLEPDNVGVVVFGNDKLIKEGDIVKRTGAIVDVPVGEELLGRVVDALGNAIDGKGPIGSKTRRRVGLKAPGIIPRISVREPMQTGIKAVDSLVPIGRGQRELIIGDRQTGKTSIAIDTIINQKRFNDGSDEKKKLYCIYVAIGQKRSTVAQLVKRLTDADAMKYTIVVSATASDAAPLQYLAPYSGCSMGEYFRDNGKHALIIYDDLSKQAVAYRQMSLLLRRPPGREAYPGDVFYLHSRLLERAAKMNDAFGGGSLTALPVIETQAGDVSAYIPTNVISITDGQIFLETELFYKGIRPAINVGLSVSRVGSAAQTRAMKQVAGTMKLELAQYREVAAFAQFGSDLDAATQQLLSRGVRLTELLKQGQYSPMAIEEQVAVIYAGVRGYLDKLEPSKITKFENAFLSHVVSQHQALLGTIRADGKISEQSDAKLKEIVTNFLAGFEA
Regarding B1, the FRET efficiency is ~25%.
